Laboratory results as given in patent publication US20220403001A1, “PDE5 DERIVED REGULATORY CONSTRUCTS AND METHODS OF USE IN IMMUNOTHERAPY” (Obsidian Therapeutics, Inc., priority 2018, published 2022).

Tests used:
hPDE5 mutants [1] = biological target: T1, hPDE5 mutants (Homo sapiens, UniProt O76074); assay: GFP MFI by FACS in HCT116 cells transduced with hPDE5 constructs; assay type: cell-based; settings: for Vardenafil Stabilization ratio / Sildenafil Stabilization ratio / GFP by FACS, Sildenafil 10 μM / GFP by FACS, Vardenafil 1 μM: hotspot constructs; for Vardenafil Stabilization ratio: 1 μM Vardenafil; for Sildenafil Stabilization ratio: 10 μM Sildenafil; for GFP by FACS, Sildenafil 10 μM / GFP by FACS, Vardenafil 1 μM: HCT116
Experimental: (§1) Desirable qualities of a DD include, low expression of the SRE in the absence of ligand and ligand dependent stabilization of the SRE. Constructs were generated using DDs linked to GFP using an SG linker. […] The mean fluorescence intensity (MFI) of GFP was analyzed by FACS. […] Destabilizing mutation coefficient less than 1 are desirable.
(§2) Mean fluorescence intensity (MFI) was measured by FACS. […] Destabilizing mutation coefficient ratios less than 1 are desirable.
(§3) Mean fluorescence intensity (MFI) was measured by FACS. […] Destabilizing mutation co-efficient ratios less than 1 are desirable.
(§4) Mean fluorescence intensity (MFI) was measured by FACS. […] Destabilizing mutation coefficient less than 1 are desirable.
as §4
(§5) Mean fluorescence intensity (MFI) of GFP was measured by FACS.
(§6) Mean fluorescence intensity (MFI) was measured by FACS.
(§7) The media containing the ligand was removed and fresh media without the ligand was added.
(§8) The properties of the DDs were analyzed in the presence and absence of ligands via FACS as previously described.
(§9) GFP fluorescence was measured by FACS.
(§10) The properties of the DDs were analyzed via FACS both in the presence and absence of ligands.
as §9

hPDE5 mutants [2] = assay: as above; assay type: cell-based, human; settings: for MFI: 48 hours, HCT 116 cells; for Sildenafil Destabilizing mutation coefficient / Vardenafil Destabilizing mutation coefficient / GFP by FACS, Sildenafil 0 μM (DMSO) / GFP by FACS, Vardenafil 0 μM (DMSO): hotspot constructs; for Sildenafil Destabilizing mutation coefficient: DMSO control of Sildenafil; for Sildenafil Destabilizing mutation coefficient / Vardenafil Destabilizing mutation coefficient: vs OT-001075; for Vardenafil Destabilizing mutation coefficient: DMSO control of Vardenafil; for GFP by FACS, Sildenafil 0 μM (DMSO): HCT116, DMSO control of Sildenafil; for GFP by FACS, Vardenafil 0 μM (DMSO): HCT116, DMSO control of Vardenafil
Experimental: as §1, §2, §3, §4, §4, §5, §6, §7, §8, §9, §10, §9

hPDE5 mutants [3] = biological target: T1, hPDE5 mutants; assay: Western blot of AcGFP/GFP protein levels in HCT 116 cells expressing hPDE5 mutants; assay type: cell-based; set-up: GFP protein levels (western blot); fused on or other part: AcGFP reporter through a linker; settings: vardenafil vs DMSO, HCT 116, R732 mutants
Experimental: Protein expression analysis of the combination mutants was performed in parallel via western blot. […] GAPDH levels were also analyzed to ensure even protein loading.

[4] = Table 44, Vardenafil 0.01 μM, 48 h, HCT 116
[5] = Table 44, Vardenafil 0.04 μM, 48 h, HCT 116
[6] = Table 44, Vardenafil 3.33 μM, 48 h, HCT 116
[7] = Table 44, Vardenafil 10 μM, 48 h, HCT 116
[8] = Table 44, Vardenafil 30 μM, 48 h, HCT 116
[9] = Table 44, Vardenafil 1000 μM, 48 h, HCT 116
[10] = Table 45, Sildenafil 0.01 μM, 48 h, HCT 116
[11] = Table 45, Sildenafil 0.04 μM, 48 h, HCT 116
[12] = Table 45, Sildenafil 3.33 μM, 48 h, HCT 116
[13] = Table 45, Sildenafil 10 μM, 48 h, HCT 116
[14] = Table 45, Sildenafil 30 μM, 48 h, HCT 116
[15] = Table 45, Sildenafil 1000 μM, 48 h, HCT 116
[16] = Tadalafil 0.01 μM, 48 hours, HCT 116 cells

Row | Substance | MFI (hPDE5 mutants [1]; [4]) | MFI (hPDE5 mutants [1]; [5]) | MFI (hPDE5 mutants [1]; [6]) | MFI (hPDE5 mutants [1]; [7]) | MFI (hPDE5 mutants [1]; [8]) | MFI (hPDE5 mutants [1]; [9]) | MFI (hPDE5 mutants [1]; [10]) | MFI (hPDE5 mutants [1]; [11]) | MFI (hPDE5 mutants [1]; [12]) | MFI (hPDE5 mutants [1]; [13]) | MFI (hPDE5 mutants [1]; [14]) | Vardenafil Stabilization ratio (hPDE5 mutants [1]) | Sildenafil Stabilization ratio (hPDE5 mutants [1]) | GFP by FACS, Sildenafil 10 μM (hPDE5 mutants [1]) | GFP by FACS, Vardenafil 1 μM (hPDE5 mutants [1]) | GFP protein levels (western blot) (hPDE5 mutants [3]) | Sildenafil Destabilizing mutation coefficient (hPDE5 mutants [2]) | Vardenafil Destabilizing mutation coefficient (hPDE5 mutants [2]) | GFP by FACS, Sildenafil 0 μM (DMSO) (hPDE5 mutants [2]) | GFP by FACS, Vardenafil 0 μM (DMSO) (hPDE5 mutants [2]) | further results
1 | OT-001197: hPDE5 R732T AcGFP construct | 2854 | 6862 | 41788 | 48946 | 67364 | 67364 | 856 | 1041 | 6896 | 12407 | 21258 | 1.15 | 1.98 | 546 | 270 | strong stabilization of GFP levels | 0.28 | 1.46 | 276 | 235 | MFI (hPDE5 mutants [1]; [15]): 21258; MFI (hPDE5 mutants [1]; [16]): 825; MFI (hPDE5 mutants [2]; Tadalafil 11.11 μM): 12843; MFI (hPDE5 mutants [2]; Tadalafil 33.33 μM): 17164; MFI (hPDE5 mutants [2]; Tadalafil 100 μM): 21113; MFI (hPDE5 mutants [2]; Tadalafil 1000 μM): 21113
2 | OT-001189: hPDE5 R732I AcGFP construct | 1810 | 3356 | 14531 | 17645 | 24322 | 24322 | 579 | 612 | 1709 | 2733 | 4197 | 3.89 | 0.85 | 170 | 587 | Modest ligand dependent stabilization of GFP levels | 0.2 | 0.94 | 201 | 151 | MFI (hPDE5 mutants [1]; [15]): 4197; MFI (hPDE5 mutants [1]; [16]): 498; MFI (hPDE5 mutants [2]; Tadalafil 11.11 μM): 2746; MFI (hPDE5 mutants [2]; Tadalafil 33.33 μM): 3970; MFI (hPDE5 mutants [2]; Tadalafil 100 μM): 5487; MFI (hPDE5 mutants [2]; Tadalafil 1000 μM): 5487
3 | OT-001187: hPDE5 R732A AcGFP construct | 2551 | 8345 | 16783 | 18945 | 22548 | 22548 | 808 | 1025 | 3769 | 4716 | 5694 | 4.87 | 1.21 | 348 | 853 | strong stabilization of GFP levels | 0.29 | 1.09 | 288 | 175 | MFI (hPDE5 mutants [1]; [15]): 5694; MFI (hPDE5 mutants [1]; [16]): 752; MFI (hPDE5 mutants [2]; Tadalafil 11.11 μM): 5126; MFI (hPDE5 mutants [2]; Tadalafil 33.33 μM): 6264; MFI (hPDE5 mutants [2]; Tadalafil 100 μM): 6301; MFI (hPDE5 mutants [2]; Tadalafil 1000 μM): 6301
4 | OT-001204: hPDE5 R732K AcGFP construct | – | – | – | – | – | – | – | – | – | – | – | 3.74 | 4.64 | 765 | 423 | Modest ligand dependent stabilization of GFP levels | 0.17 | 0.7 | 165 | 113 | –
5 | OT-001188: hPDE5 R732V AcGFP construct | – | – | – | – | – | – | – | – | – | – | – | 3.38 | 0.6 | 113 | 507 | Modest ligand dependent stabilization of GFP levels | 0.19 | 0.93 | 189 | 150 | –
6 | OT-001201: hPDE5 R732N AcGFP construct | – | – | – | – | – | – | – | – | – | – | – | 0.93 | 1.64 | 516 | 290 | strong stabilization of GFP levels | 0.32 | 1.94 | 315 | 313 | –

Continued, in another order:

Row | MFI (hPDE5 mutants [1]; [4]) | MFI (hPDE5 mutants [1]; [5]) | MFI (hPDE5 mutants [1]; [6]) | MFI (hPDE5 mutants [1]; [7]) | MFI (hPDE5 mutants [1]; [8]) | MFI (hPDE5 mutants [1]; [9]) | MFI (hPDE5 mutants [1]; [10]) | MFI (hPDE5 mutants [1]; [11]) | MFI (hPDE5 mutants [1]; [12]) | MFI (hPDE5 mutants [1]; [13]) | MFI (hPDE5 mutants [1]; [14]) | Vardenafil Stabilization ratio (hPDE5 mutants [1]) | Sildenafil Stabilization ratio (hPDE5 mutants [1]) | GFP by FACS, Sildenafil 10 μM (hPDE5 mutants [1]) | GFP by FACS, Vardenafil 1 μM (hPDE5 mutants [1]) | GFP protein levels (western blot) (hPDE5 mutants [3]) | Substance | Sildenafil Destabilizing mutation coefficient (hPDE5 mutants [2]) | Vardenafil Destabilizing mutation coefficient (hPDE5 mutants [2]) | GFP by FACS, Sildenafil 0 μM (DMSO) (hPDE5 mutants [2]) | GFP by FACS, Vardenafil 0 μM (DMSO) (hPDE5 mutants [2]) | further results
7 | 4336 | 7350 | 44499 | 50822 | 70645 | 70645 | 1192 | 1270 | 6171 | 13971 | 21120 | 1.44 | 1.32 | 394 | 422 | strong stabilization of GFP levels | OT-001198: hPDE5 R732D AcGFP construct | 0.3 | 1.83 | 298 | 294 | MFI (hPDE5 mutants [1]; [15]): 21120; MFI (hPDE5 mutants [1]; [16]): 1163; MFI (hPDE5 mutants [2]; Tadalafil 11.11 μM): 10583; MFI (hPDE5 mutants [2]; Tadalafil 33.33 μM): 16956; MFI (hPDE5 mutants [2]; Tadalafil 100 μM): 22630; MFI (hPDE5 mutants [2]; Tadalafil 1000 μM): 22630
8 | – | – | – | – | – | – | – | – | – | – | – | 0.77 | 1.07 | 316 | 212 | strong stabilization of GFP levels | OT-001199: hPDE5 R732E AcGFP construct | 0.3 | 1.71 | 295 | 276 | –
9 | – | – | – | – | – | – | – | – | – | – | – | 0.66 | 1.42 | 707 | 349 | strong stabilization of GFP levels | OT-001203: hPDE5 R732C AcGFP construct | 0.5 | 3.27 | 499 | 526 | –
